What was measured:
Conditions in all cases: remark: other sources report otherwise
[1] = target: S1 monomer of SARS-CoV-2 Delta (SARS-CoV-2), P0DTC2
[2] = target: prefusion-stabilized S trimer of the Delta variant (SARS-CoV-2), P0DTC2
[3] = target: prefusion-stabilized S trimer of the Omicron (B.1.529) variant (SARS-CoV-2), P0DTC2

B1: 3-31 (Fc fusion)
chain: EVQLVESGGGLVQPGGSLRLSCAASGSTFSINAMGWFRQAPGKEREFVAGITSSGGYTNYADSVKGRFTISADNSKNTAYLQMNSLKPEDTAVYYCAADGVPEYSDYASGPVWGQGTLVTVSS
[1]
  Kd: 1.1 nM
[2]
  Kd: < 0.016 nM
[3]
  Kd: 2.1 nM

Reference: US20230257448A1 (TWIST BIOSCIENCE, published 2023)
